Measurements from patent US9487580.

Biological target: T1, recombinant human IL-23 (p19/p40 heterodimer) (human, UniProt Q9NPF7)
T1 chain 1: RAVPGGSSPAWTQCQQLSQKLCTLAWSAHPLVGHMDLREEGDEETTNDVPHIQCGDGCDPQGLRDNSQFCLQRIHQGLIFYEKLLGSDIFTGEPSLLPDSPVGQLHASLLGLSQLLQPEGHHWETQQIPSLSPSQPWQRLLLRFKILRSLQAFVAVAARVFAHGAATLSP
T1 chain 2: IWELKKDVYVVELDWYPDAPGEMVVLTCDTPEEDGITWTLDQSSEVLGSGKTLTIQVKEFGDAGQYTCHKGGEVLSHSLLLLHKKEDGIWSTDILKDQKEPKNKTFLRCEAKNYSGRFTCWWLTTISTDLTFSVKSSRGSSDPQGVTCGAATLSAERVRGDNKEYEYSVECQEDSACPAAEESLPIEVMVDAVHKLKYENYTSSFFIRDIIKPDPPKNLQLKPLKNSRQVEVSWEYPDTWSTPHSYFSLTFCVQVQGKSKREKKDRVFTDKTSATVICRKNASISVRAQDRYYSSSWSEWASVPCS
Assay: KinExA

B1: Antibody B (antibody, V domains shown)
VH: QVQLQESGPGLVKPSQTLSLTCTVSGGSISSGGYYWSWIRQHPGKGLEWIGHIHYSGNTYYNPSLKSRVTISVDTSKNQFSLKLSSVTAADTAVYYCARNRGFYYGMDVWGQGTTVTVSS
VL: DIQMTQSPSSVSASVGDRVTITCRASQVISSWLAWYQQKPGKAPSLLIYAASSLQSGVPSRFSGSVSGTDFTLTISSLQPEDFATYYCQQANSFPFTFGPGTKVDFK
Kd: 3.99 pM
